T1: CheC (Bacillus subtilis, UniProt P40403 1-209)
T1 construct: CheC, CheY-P phosphatase, Bacillus subtilis; also called pTM18 (pGEX-6P-2::cheC2); source: E. coli, overexpressed as GST-CheC, purified (GSTrap), GST removed with PreScission protease; not shown: GST, N-terminal, cleaved
T1 sequence (looked up): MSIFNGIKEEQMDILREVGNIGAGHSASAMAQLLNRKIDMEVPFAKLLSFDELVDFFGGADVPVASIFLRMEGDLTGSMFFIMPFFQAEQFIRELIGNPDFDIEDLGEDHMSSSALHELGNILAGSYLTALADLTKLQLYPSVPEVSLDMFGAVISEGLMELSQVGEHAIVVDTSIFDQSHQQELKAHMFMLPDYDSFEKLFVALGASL


What was measured:
[1] = biological target: GST-CheD-F102E (Bacillus subtilis) (UniProt P40404); experiment: pull-down; 80 µM GST-CheD or GST-CheD-F102E on glutathione beads; 100 µM CheC or receptor fragment added for 10 min; washed with TBS + 1% Triton X-100; eluted with glutathione; SDS-PAGE, Coomassie stain, densitometry
CheC [2] = biological target: T1, CheC; experiment: SPR; Biacore 3000, NTA chip; 500 RU of GST-6xHis-CheD immobilised; CheC injected at different concentrations (80 µl, 20 µl/min); running buffer TKMD (50 mM Tris pH 8.0, 50 mM KCl, 5 mM MgCl2, 0.1 mM DTT); triplicate; conditions: both partners purified
CheC [3] = biological target: T1, CheC; experiment: SPR; as a1, but with 20 µM CheY in the running buffer and in the injected CheC; conditions: both partners purified
CheC [4] = biological target: T1, CheC; experiment: SPR; as a1, but with 20 µM CheY and 5 mM acetyl phosphate (CheYp) in the running buffer and in the injected CheC; conditions: both partners purified

Row | percent of the CheC bound by GST-CheD [1] [%] | Kd (CheC [2]) [µM] | koff (CheC [2]) [s⁻¹] | kon (CheC [2]) [M⁻¹ s⁻¹] | Kd (CheC [3]) [µM] | koff (CheC [3]) [s⁻¹] | kon (CheC [3]) [M⁻¹ s⁻¹] | Kd (CheC [4]) [µM] | koff (CheC [4]) [s⁻¹] | kon (CheC [4]) [M⁻¹ s⁻¹] | Molecule
1 | 10 | – | – | – | – | – | – | – | – | – | CheC (from UniProt P40403 1-209) (enzyme)
2 | – | 3.95 | 0.0568 | 14700 | 7.01 | 0.0743 | 10600 | 0.546 | 0.0976 | 179000 | GST-6xHis-CheD (enzyme, Bacillus subtilis, UniProt P40404 1-166, looked up, CheD, chemoreceptor glutamine deamidase, Bacillus subtilis; cheD gene amplified from OI1085 genomic DNA, cloned in pGEX-6P-2; Order of the tags by the printed name GST-6xHis-CheD: the 6xHis lies between GST and CheD; Held on the NTA chip by the 6xHis; also called pWY88 (pGEX-6P-2::6xHis-cheD2); source: E. coli, overexpressed, purified (GSTrap); not shown: GST, N-terminal, kept; 6xHis, N-terminal, …) MSTTEAVVIKVGIADVKIARFPDTIRTSGLGSCVGLVLYDKEKQTAGLVHVMLPDSTLSKTAELNRAKYADTAVQTTIDMLIEAGCRKFALKAKLAGGSEMFKFKSTNDLMKIGPRNVLAIKEQLSLFNIPIISEDTGGSSGRTIEFEPKSCMLHIRTVKQGEKTI
